B1: Azoarcus group I ribozyme (parent)
chain: GUGCCUUGCGCCGGGAAACCACGCAAGGGAUGGUGUCAAAUUCGGCGAAACCUAAGCGCCCGCCCGGGCGUAUGGCAACGCCGAGCCAAGCUUCGGCGCCUGCGCCGAUGAAGGUGUAGAGACUAGACGGCACCCACCUAAGGCAAACGCUAUGGUGAAGGCAUAGUCCAGGGAGUGGCGAAAGUCACACAAACCGG

Variants of: B1
Assay: reverse-splicing fitness (ratio to wild type); higher = more active; in vitro selection; Mg2+ level not given
Outline: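 An in vitro group I ribozyme library with randomized positions was T7-transcribed and gel-purified. In triplicate, 10 pmol RNA in EPPS pH 7.5 was reacted with 50 pmoles of a 30-nt RNA substrate for 1 h at 37 °C across several added MgCl2 levels (1–48 mM), then stopped with EDTA. Products were reverse transcribed from a substrate-complementary primer, PCR-amplified and sequenced (HiSeq 4000). Fitness is a variant's read proportion after selection over that before, normalised to wild type.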

Row | Variant | reverse-splicing fitness
1 | GUGCCUUGCGCCGGGAAACCACGCAAGGGAUGGUGUCAAAUUCGGCGAAACCUAAGCGCCCGCCCGGGCGUAUGGCAACGCAGAGCCAAGCUUCGGCGCCUGCGCCGAUGGAGGUGUAGUGACUAGACGGCACCCACCUAAGGCUAACGAUAUGGUGAAGGCAUAGUCCAGGGAGUGGCGAAAGUCACACAAACCGG | 0.00648
2 | GUGCCUUGCGCCGGGAAACCACGCAAGGGAUGGUGUCAAAUUCGGCGAAACCUAAGCGCCCGCCCGGGCGUAUGGCAACGCAGAGCCAAGCUUCGGCGCCUGCGCCGAUGGAGGUGUAGUGACUAGACGGCACCCACCUAAGGCGAACGCUAUGGUGAAGGCAUAGUCCAGGGAGGGGCGAAAGUCACACAAACCGG | 0.00317
3 | GUGCCUUGCGCCGGGAAACCACGCAAGGGAUGGUGUCAAAUUCGGCGAAACCUAAGCGCCCGCCCGGGCGUAUGGCAACGCAGAGCCAAGCUUCGGCGCCUGCGCCGAUGGAGGUGUAGUGACUAGACGGCACCCACCUAAGGCGAACGCUAUGGUGAAGGCAUAGUCCAGGGAGCGGCGAAAGUCACACAAACCGG | 0.0165
4 | GUGCCUUGCGCCGGGAAACCACGCAAGGGAUGGUGUCAAAUUCGGCGAAACCUAAGCGCCCGCCCGGGCGUAUGGCAACGCAGAGCCAAGCUUCGGCGCCUGCGCCGAUGGAGGUGUAGUGACUAGACGGCACCCACCUAAGGCGAACGCUAUGGUGAAGGCAUAGUCCAGGGAGAGGCGAAAGUCACACAAACCGG | 0.00959
5 | GUGCCUUGCGCCGGGAAACCACGCAAGGGAUGGUGUCAAAUUCGGCGAAACCUAAGCGCCCGCCCGGGCGUAUGGCAACGCAGAGCCAAGCUUCGGCGCCUGCGCCGAUGGAGGUGUAGUGACUAGACGGCACCCACCUAAGGCUAACGAUAUGGUGAAGGCAUAGUCUAGGGAGAGGCGAAAGUCACACAAACCGG | 0.00277
6 | GUGCCUUGCGCCGGGAAACCACGCAAGGGAUGGUGUCAAAUUCGGCGAAACCUAAGCGCCCGCCCGGGCGUAUGGCAACGCAGAGCCAAGCUUCGGCGCCUGCGCCGAUGGAGGUGUAGUGACUAGACGGCACCCACCUAAGGCUAACGAUAUGGUGAAGGCAUAGUCUAGGGAGCGGCGAAAGUCACACAAACCGG | 0.00285
7 | GUGCCUUGCGCCGGGAAACCACGCAAGGGAUGGUGUCAAAUUCGGCGAAACCUAAGCGCCCGCCCGGGCGUAUGGCAACGCAGAGCCAAGCUUCGGCGCCUGCGCCGAUGGAGGUGUAGUGACUAGACGGCACCCACCUAAGGCUAACGAUAUGGUGAAGGCAUAGUCUAGGGAGGGGCGAAAGUCACACAAACCGG | 0.0018
8 | GUGCCUUGCGCCGGGAAACCACGCAAGGGAUGGUGUCAAAUUCGGCGAAACCUAAGCGCCCGCCCGGGCGUAUGGCAACGCAGAGCCAAGCUUCGGCGCCUGCGCCGAUGGAGGUGUAGUGACUAGACGGCACCCACCUAAGGCGAACGCUAUGGUGAAGGCAUAGUCUAGGGAGAGGCGAAAGUCACACAAACCGG | 0.00366
9 | GUGCCUUGCGCCGGGAAACCACGCAAGGGAUGGUGUCAAAUUCGGCGAAACCUAAGCGCCCGCCCGGGCGUAUGGCAACGCAGAGCCAAGCUUCGGCGCCUGCGCCGAUGGAGGUGUAGUGACUAGACGGCACCCACCUAAGGCGAACGCUAUGGUGAAGGCAUAGUCUAGGGAGGGGCGAAAGUCACACAAACCGG | 0.00173
10 | GUGCCUUGCGCCGGGAAACCACGCAAGGGAUGGUGUCAAAUUCGGCGAAACCUAAGCGCCCGCCCGGGCGUAUGGCAACGCAGAGCCAAGCUUCGGCGCCUGCGCCGAUGGAGGUGUAGUGACUAGACGGCACCCACCUAAGGCGAACGCUAUGGUGAAGGCAUAGUCUAGGGAGCGGCGAAAGUCACACAAACCGG | 0.00338
11 | GUGCCUUGCGCCGGGAAACCACGCAAGGGAUGGUGUCAAAUUCGGCGAAACCUAAGCGCCCGCCCGGGCGUAUGGCAACGCAGAGCCAAGCUUCGGCGCCUGCGCCGAUGGAGGUGUAGUGACUAGACGGCACCCACCUAAGGCUAACGAUAUGGUGAAGGCAUAGUCAAGGGAGUGGCGAAAGUCACACAAACCGG | 0.00209
12 | GUGCCUUGCGCCGGGAAACCACGCAAGGGAUGGUGUCAAAUUCGGCGAAACCUAAGCGCCCGCCCGGGCGUAUGGCAACGCAGAGCCAAGCUUCGGCGCCUGCGCCGAUGGAGGUGUAGUGACUAGACGGCACCCACCUAAGGCUAACGAUAUGGUGAAGGCAUAGUCUAGGGAGUGGCGAAAGUCACACAAACCGG | 0.00275
13 | GUGCCUUGCGCCGGGAAACCACGCAAGGGAUGGUGUCAAAUUCGGCGAAACCUAAGCGCCCGCCCGGGCGUAUGGCAACGCAGAGCCAAGCUUCGGCGCCUGCGCCGAUGGAGGUGUAGUGACUAGACGGCACCCACCUAAGGCUAACGAUAUGGUGAAGGCAUAGUCGAGGGAGUGGCGAAAGUCACACAAACCGG | 0.00258
14 | GUGCCUUGCGCCGGGAAACCACGCAAGGGAUGGUGUCAAAUUCGGCGAAACCUAAGCGCCCGCCCGGGCGUAUGGCAACGCAGAGCCAAGCUUCGGCGCCUGCGCCGAUGGAGGUGUAGUGACUAGACGGCACCCACCUAAGGCGAACGCUAUGGUGAAGGCAUAGUCGAGGGAGAGGCGAAAGUCACACAAACCGG | 0.00375
15 | GUGCCUUGCGCCGGGAAACCACGCAAGGGAUGGUGUCAAAUUCGGCGAAACCUAAGCGCCCGCCCGGGCGUAUGGCAACGCAGAGCCAAGCUUCGGCGCCUGCGCCGAUGGAGGUGUAGUGACUAGACGGCACCCACCUAAGGCGAACGCUAUGGUGAAGGCAUAGUCGAGGGAGCGGCGAAAGUCACACAAACCGG | 0.00421

— the RNAGym collection of RNA variant scans (doi:10.1093/molbev/msab373)
